Assay results published in IntAct's records for PubMed 12878161.

B1: Tripartite motif-containing protein 5 (Homo sapiens), Q9C035-4 (parent)
chain: MASGILVNVKEEVTCPICLELLTQPLSLDCGHSFCQACLTANHKKSMLDKGESSCPVCRISYQPENIRPNRHVANIVEKLREVKLSPEGQKVDHCARHGEKLLLFCQEDGKVICWLCERSQEHRGHHTFLTEEVAREYQVKLQAALEMLRQKQQEAEELEADIREEKASWKTQIQYDKTNVLADFEQLRDILDWEESNELQNLEKEEEDILKSLTNSETEMVQQTQSLRELISDLEHRLQGSVMELLQGVDGVIKRTENVTLKKPETFPKNQRRVFRAPDLKGMLEVFRELTDVRRYWGWSAMARSRFTATSTSQIQAILLPQPPK
partner: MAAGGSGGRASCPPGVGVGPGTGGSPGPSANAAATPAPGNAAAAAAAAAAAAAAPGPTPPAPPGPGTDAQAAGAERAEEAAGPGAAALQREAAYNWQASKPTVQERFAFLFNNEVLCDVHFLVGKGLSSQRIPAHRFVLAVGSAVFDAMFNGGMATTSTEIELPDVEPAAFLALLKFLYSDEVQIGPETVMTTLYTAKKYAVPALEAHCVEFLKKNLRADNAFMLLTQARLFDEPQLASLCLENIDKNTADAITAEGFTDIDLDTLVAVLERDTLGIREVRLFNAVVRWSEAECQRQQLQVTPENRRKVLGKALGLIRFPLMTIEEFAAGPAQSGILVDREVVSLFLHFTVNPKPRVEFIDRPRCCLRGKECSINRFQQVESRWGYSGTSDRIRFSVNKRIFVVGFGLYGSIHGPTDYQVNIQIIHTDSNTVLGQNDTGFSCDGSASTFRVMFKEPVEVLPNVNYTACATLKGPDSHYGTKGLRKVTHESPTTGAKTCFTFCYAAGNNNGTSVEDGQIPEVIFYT

Variants of: B1
Details: with btbd2_human BTBD2, Q9BX70

| effect of a mutation on the interaction | Variant |
| --- | --- |
| decreasing interaction | C15A;C18A |
